The chains are these.
B1: Protein phosphatase 1A (Homo sapiens), P35813 (parent)
chain: MGAFLDKPKMEKHNAQGQGNGLRYGLSSMQGWRVEMEDAHTAVIGLPSGLESWSFFAVYDGHAGSQVAKYCCEHLLDHITNNQDFKGSAGAPSVENVKNGIRTGFLEIDEHMRVMSEKKHGADRSGSTAVGVLISPQHTYFINCGDSRGLLCRNRKVHFFTQDHKPSNPLEKERIQNAGGSVMIQRVNGSLAVSRALGDFDYKCVHGKGPTEQLVSPEPEVHDIERSEEDDQFIILACDGIWDVMGNEELCDFVRSRLEVTDDLEKVCNEVVDTCLYKGSRDNMSVILICFPNAPKVSPEAVKKEAELDKYLECRVEEIIKKQGEGVPDLVHVMRTLASENIPSLPPGGELASKRNVIEAVYNRLNPYKNDDTDSTSTDDMW

In the assay the parent is B1. The conditions noted are these: with cdk9_human CDK9, P50750.
Chain of cdk9_human CDK9, P50750 (P50750 whole entry): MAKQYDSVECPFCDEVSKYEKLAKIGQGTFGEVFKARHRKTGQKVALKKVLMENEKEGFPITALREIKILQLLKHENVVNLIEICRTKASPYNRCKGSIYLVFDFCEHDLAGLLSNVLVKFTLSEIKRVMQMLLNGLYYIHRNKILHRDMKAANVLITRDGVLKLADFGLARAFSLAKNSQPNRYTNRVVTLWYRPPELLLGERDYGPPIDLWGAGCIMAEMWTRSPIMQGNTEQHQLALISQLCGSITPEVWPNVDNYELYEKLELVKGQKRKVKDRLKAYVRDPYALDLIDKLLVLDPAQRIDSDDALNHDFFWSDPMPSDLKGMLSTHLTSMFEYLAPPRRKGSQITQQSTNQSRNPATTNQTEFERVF
Take D239N: the “effect of a mutation on the interaction” value is “with no effect”.
